Reference: article PMC6572864, “Recombinant production, purification, crystallization, and structure analysis of human transforming growth factor β2 in a new conformation” (Scientific Reports, 2019)

Molecular target: the molecule itself
Assay: crystal structure; sitting-drop vapor diffusion, 20 °C, 20% isopropanol, 0.2 M calcium chloride, 0.1 M sodium acetate pH 4.6; space group P4(1)2(1)2, 2.0 Å; half a disulfide-linked dimer per asymmetric unit

B1: human transforming growth factor β2, mature growth-factor moiety (GF) (ligand, UniProt P61812 303-414, looked up)
chain: ALDAAYCFRNVQDNCCLRPLYIDFKRDLGWKWIHEPKGYNANFCAGACPYLWSSDTQHSRVLSLYNTINPEASASPCCVSQDLEPLTILYYIGKTPKIEQLSNMIVKSCKCS
notes: human TGFβ2 growth-factor moiety, residues A303-S414 of the precursor (UniProt P61812), 112 residues, released by cleavage at R302-A303; Disulfide-linked homodimer (intermolecular disulfide C379-C379); The crystals came from octahistidine-tagged pro-TGFβ2 mixed with methylamine-induced hα2M; they also grew from pro-TGFβ2 alone; also called mature TGFβ2; TGFβ2 GF; source: purified together with …
stoichiometry N: 2
